According to PMC3465764:

Substrate: NC(=O)c1cnccn1
Assay: steady-state enzyme kinetics
Format: biochemical, Acinetobacter baumannii

B1: AbPncA (Acinetobacter baumannii ATCC 19606 = CIP 70.34 = JCM 6841) (protein)
chain: MKMNKQPQNSALVVVDVQNGFTPGGNLAVADADTIIPTINQLAGCFENVVLTQDWHPDNHISFAANHPGKQPFETIELDYGSQVLWPKHCIQGTHDAEFHPDLNIPTAQLIIRKGFHAHIDSYSAFMEADHTTMTGLTGYLKERGIDTVYVVGIATDFCVAWTALDAVKQGFKTLVIEDACKGIDLNGSLEQAWQTMQQQGVVRIQSTDLLNEC
**Q.** How did the Km turn out when B1 was run?
**A.** The Km was 106.9 µM.
